# Source: PMC4917896, “RNA binding proteins regulate anabolic and catabolic gene expression in chondrocytes”
# Biological target: TTP (tristetraprolin), GST-TTP (UniProt P26651 1-326)
# Assay: EMSA; 10 mM Tris-HCl pH 7.5, 50 mM KCl, 1 mM DTT, 5% glycerol, 500 ug/ml tRNA, 40 ng probe in 20 ul, 20 min at 4 C (stated for lysate EMSA); 6% native PAGE on ice
# Conditions: protein: commercial; (GST fusion); label: 3' biotin
# Chain of TTP (tristetraprolin), GST-TTP (P26651 whole entry): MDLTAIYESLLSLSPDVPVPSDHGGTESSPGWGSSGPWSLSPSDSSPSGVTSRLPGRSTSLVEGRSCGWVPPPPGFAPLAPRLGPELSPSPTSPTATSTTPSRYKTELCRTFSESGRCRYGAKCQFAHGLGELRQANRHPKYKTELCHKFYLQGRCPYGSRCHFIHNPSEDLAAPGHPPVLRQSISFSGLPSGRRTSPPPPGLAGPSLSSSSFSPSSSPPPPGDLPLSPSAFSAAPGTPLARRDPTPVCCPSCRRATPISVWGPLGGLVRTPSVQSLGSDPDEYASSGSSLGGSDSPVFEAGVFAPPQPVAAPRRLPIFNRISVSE
row,Binder,binding result
1,"P6M (probe 6, AUUUA to AGGGA) (ssRNA) RNA: GGGGUUAAAUUAUGUUCUUAACUGUAACCAGUUUUUUUUUAGGGAUCUCUUUAAUCUUUUUUUAUUAUUAAAAGCAAGUUUC",no binding
2,"P5M (probe 5, AUUUA to AGGGA) (ssRNA) RNA: GGGAGCAGUUAACCUUCAAGACAUUCCACUUGCUAAAAUUAGGGAUUUUGUAAGGAGAGGUUUUAAUUAAAACAAAAAAAAA",no binding
